Assay results reported in paper PMC4512291 (Angewandte Chemie (International Ed. in English), 2015).

Biological target: HPV16 E6 (GPCA fusion) (HPV16, UniProt P03126 1-158)
Assay: split reporter

B1: PDZ-LxxLL chimera fused to a Gaussia princeps luciferase fragment (GPCA) (designed binder)
chain: GKPFFTRNPSELKGKFIHTKLRKSSRGFGFTVVGGDEPDEFLQIKSLVLDGPAALDGKMETGDVIVSVNDTCVLGHTHAQVVKIFQSIPIGASVDLELCRGYPLPFDPDDPNTSLVTSVAILDKEPAAAELTLQELLGEER
For B1, the “fold increase of the GPCA binding signal over that with LxxLL” value was 75 fold and the “fold increase of the GPCA binding signal over that with PDZ” value was 25 fold.
